In US20120321699A1 (published 2012) one finds Kd data, which are given here for 1 molecule.

In the assay the target is HV00044 (6240 TZ5 140C) (HIV-1). Description: SPR. On the technique in general: SPR reads the build-up and loss of mass on a sensor chip optically.

B1: CH01 (antibody, V domains shown)
VH: EVQLVESGANVVRPGGSLRLSCKASGFIFENFGFSWVRQAPGKGLQWVAGLNWNGGDTRYADSVKGRFRMSRDNSRNFVYLDMDKVGVDDTAFYYCARGTDYTIDDAGIHYQGSGTFWYFDLWGRGTLVSVSS
VL: EIVLTQSPGTLSLSPGERATLSCRASHNVHPKYFAWYQQKPGQSPRLLIYGGSTRAAGIPGKFSGSGSGTDFTLTISRVDPEDFAVYYCQQYGGSPYTFGQGTKVEI
Usually Kd stands for the free concentration of one partner at which half of the binding sites on the other are occupied at equilibrium, for simple one-to-one binding. Turning to B1, the Kd came out at 300 nM.
